Laboratory results from US7399466B2, “Method and compositions for promoting osteogenesis” (Enobia Pharma Inc., priority 2000, dated 2008).
“And” between values parts separate entries of the source, which are not always exact repeats. Equal entries are not always repeated. Where two headings read alike, the source gives them in different places. Bridges are numbered along the chain shown (N, C = ends). Where no end group is shown, it is not given here. [ ]: non-standard residue; d: D form. Gla = N[C@@H](CC(C(=O)O)C(=O)O)C(=O)O

Legend:
[1] = biological target: T1, secPHEX (Homo sapiens, UniProt P78562); assay: secPHEX enzymatic assay: inhibition of PTHrP107-139 hydrolysis (RP-HPLC); format: biochemical
T1 construct: made in house; host or cells: LLC-PK1 cells (porcine kidney; ATCC No. CRL-1392), stably transfected; purified from culture medium
T1 sequence (P78562 46-749): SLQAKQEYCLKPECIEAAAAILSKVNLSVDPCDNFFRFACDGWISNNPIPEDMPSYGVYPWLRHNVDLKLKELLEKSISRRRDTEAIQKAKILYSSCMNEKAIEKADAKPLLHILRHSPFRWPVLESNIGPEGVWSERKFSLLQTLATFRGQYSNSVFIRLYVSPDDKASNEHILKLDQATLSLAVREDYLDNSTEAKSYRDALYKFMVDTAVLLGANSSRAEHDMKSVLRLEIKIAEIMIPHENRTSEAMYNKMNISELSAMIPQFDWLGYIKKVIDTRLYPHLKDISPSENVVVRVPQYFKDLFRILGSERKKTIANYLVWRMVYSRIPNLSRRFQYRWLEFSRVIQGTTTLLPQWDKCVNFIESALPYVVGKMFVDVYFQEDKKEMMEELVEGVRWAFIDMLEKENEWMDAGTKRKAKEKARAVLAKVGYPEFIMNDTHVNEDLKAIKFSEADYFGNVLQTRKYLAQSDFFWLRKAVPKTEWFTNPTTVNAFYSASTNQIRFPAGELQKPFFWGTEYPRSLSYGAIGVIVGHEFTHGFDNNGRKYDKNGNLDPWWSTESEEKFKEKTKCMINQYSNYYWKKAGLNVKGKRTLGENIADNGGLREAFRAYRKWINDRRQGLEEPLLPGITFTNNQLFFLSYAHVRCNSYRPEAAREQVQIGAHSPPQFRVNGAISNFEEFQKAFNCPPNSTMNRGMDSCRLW
Procedure: (§1) One μg of purified secPHEX or secPHEXE581V was incubated with 5 μg of peptide substrate for 30 min at 37° C. in a volume of 200 μl of 50 mM MES (2-(N-morpholino) ethanesulfonic acid) pH6.5, 150 mM NaCl. Peptide PTHrP107-139 (human origin and obtained from Bachem, Philadelphia, Pa., U.S.A. or Peninsula Laboratories, Belmont, Calif., U.S.A.), used as a substrate, was prepared as 1 μg/μl solutions also containing 1 μg/μl of the tripeptide Tyr-Gly-Gly. This latter peptide, which is not a PHEX substrate, was used as an internal standard. Peptide substrate AWLDSGV (Dr Gilles Lajoie, Waterloo Peptide Synthesis C2-360 University of Waterloo, Waterloo, ON Canada) (SEQ ID NO: 1) was digested with secPHEX in the same manner as described above for PTHrP107-139. To determine osteocalcin inhibitory potency on secPHEX activity, osteocalcin (Peptide Research Institute, Japan or E. coli-produced) was added to the reaction mixture to final concentrations varying from 10^−8 to 5×10^−4 M. To determine the effect of agents on the inhibitory activity of osteocalcin, the agents were added to a reaction mixture containing secPHEX, peptide substrate and 5×10^−6 M osteocalcin. […] Following the incubation period, hydrolysis was stopped by the addition of EDTA to a final concentration of 5 mM. The potentiating agent was identified when the intact substrate was determined to be present in a […] concentration than in the absence of the potentiating agent (see FIG. 6). Results were quantified by comparing, after normalization for the amounts of peptide Tyr-Gly-Gly present in the samples, the areas under the peaks of the substrate.
Identification and quantification of the enzymatic activity of secPHEX on the PTHrP107-139 peptide was performed by reverse phase high performance liquid chromatography (RP-HPLC) on a C18 μBondapak analytical column (Waters, Mississauga, ON, Canada) with a UV detector set at 214 nm. Peptides were resolved with a linear gradient of 5% B to 85% B in 45 min at the flow rate of 0.4 ml/min [mobile phase A=0.1% trifluoroacetic acid; mobile phase B=80% acetonitrile (CH3CN), 0.1% trifluoroacetic acid].

[2] = biological target: T2, osteocalcin (Homo sapiens, UniProt P02818); assay: Effect of Ca2+ on the inhibitory action of osteocalcin on secPHEX; format: biochemical
T2 construct: The mature peptide is 49 amino acids long with 3 Gla residues and one difulfide bond; purchased Peptide Research Institute, Japan
T2 sequence (P02818 52-100): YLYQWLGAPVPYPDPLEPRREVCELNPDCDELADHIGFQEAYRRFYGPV
Procedure: One μg of purified secPHEX or secPHEXE581V was incubated with 5 μg of peptide substrate for 30 min at 37° C. in a volume of 200 μl of 50 mM MES (2-(N-morpholino) ethanesulfonic acid) pH6.5, 150 mM NaCl. Peptide PTHrP107-139 (human origin and obtained from Bachem, Philadelphia, Pa., U.S.A. or Peninsula Laboratories, Belmont, Calif., U.S.A.), used as a substrate, was prepared as 1 μg/μl solutions also containing 1 μg/μl of the tripeptide Tyr-Gly-Gly. This latter peptide, which is not a PHEX substrate, was used as an internal standard. Peptide substrate AWLDSGV (Dr Gilles Lajoie, Waterloo Peptide Synthesis C2-360 University of Waterloo, Waterloo, ON Canada) (SEQ ID NO: 1) was digested with secPHEX in the same manner as described above for PTHrP107-139. […] The potentiating agent was identified when the intact substrate was determined to be present in a […] concentration than in the absence of the potentiating agent (see FIG. 6). Results were quantified by comparing, after normalization for the amounts of peptide Tyr-Gly-Gly present in the samples, the areas under the peaks of the substrate.
(§2) Identification and quantification of the enzymatic activity of secPHEX on the PTHrP107-139 peptide was performed by reverse phase high performance liquid chromatography (RP-HPLC) on a C18 μBondapak analytical column (Waters, Mississauga, ON, Canada) with a UV detector set at 214 nm. […]

[3] = system: Hyp male mice; assay: secPHEX injection to Hyp mice, daily for 4 days: serum phosphate; format: in vivo, mouse; design: serum phosphate, Day 0 / serum phosphate, Day 4: unit not given here; conditions: for serum phosphate, Day 0 / serum phosphate, Day 4: individual Hyp mice; for serum phosphate, Day 0: baseline before treatment
Procedure: Purified secPHEX solubilized in 1 mM phosphate pH 7.4, 150 mM NaCl, was administered intravenously daily for 4 or 14 consecutive days through the subclavian vein Hyp males (12 weeks of age). The same number of aged-matched Hyp male mice were treated with vehicle only as controls. […]

[4] = system: PTHrP107-139; assay: secPHEX activity: digestion of PTHrP107-139 (RP-HPLC, MALDI-Tof); format: biochemical, human
Procedure: as §1, §2
The pH optimum for the reaction was determined by progressively increasing the pH of the MES buffer from 5.0 to 7.0 or of a Tris buffer (50 mM Tris.HCl, 150 mM NaCl) from 7.0 to 9.0.

[5] = Precipitation of secPHEX in low-salt solutions; format: physicochemical; conditions: NaCl added to reaction mixture
Procedure: SecPHEX activity was assayed in 50 mM MES pH 6.5 containing 150 mM NaCl (26). Sodium chloride was added to the reaction mixture because we observed that secPHEX precipitated out in solutions containing less than 50 mM salt.

[6] = system: Hyp male mice; assay: secPHEX injection to Hyp mice, daily for 14 days: serum alkaline phosphatase and phosphate; format: in vivo, mouse
Procedure: Purified secPHEX solubilized in 1 mM phosphate pH 7.4, 150 mM NaCl, was administered intravenously daily for 4 or 14 consecutive days through the subclavian vein Hyp males (12 weeks of age). The same number of aged-matched Hyp male mice were treated with vehicle only as controls.
In a similar experiment, Hyp male mice where injected with daily doses of 1 mg/kg secPHEX for 14 days.

[7] = 1 mM added to the reaction mixture
[8] = PTHrP107-139 substrate, inhibitor varied from 0.1 to 50 mM, read-out: concentration giving 50% inhibition of secPHEX activity
[9] = 1 mg/kg daily, individual Hyp mice

## c1cnc2c(c1)ccc1cccnc12 [1,10-phenanthroline]
[1]; [7]
  inhibition of secPHEX activity: fully inhibited

## [Ca+2] [Ca^2+, CaCl2, reference compound]
[1]; data not shown
  effect on secPHEX activity in the absence of osteocalcin: no effect
[2]; CaCl2 varied from 10^−6 to 10^−2 M, constant osteocalcin 2×10^−6M (FIG. 6B), read-out: Ca2+ concentration necessary to reduce the inhibitory potency of osteocalcin by 50%
  EC50: 5000 µM

## O=C(O)CN(CCN(CC(=O)O)CC(=O)O)CC(=O)O [EDTA]
[1]; [7]
  inhibition of secPHEX activity: fully inhibited

## O=P(O)(O)O [Pi]
[1]; [8]
  IC50: 3500 µM

## O=P(O)(O)OP(=O)(O)O [pyrophosphate]
[1]; [8]
  IC50: 2500 µM

## E. coli-produced osteocalcin: human osteocalcin without Gla residues made in E. coli (pGEX-OST vector) (YLYQWLGAPVPYPDPLEPRREVCELNPDCDELADHIGFQEAYRRFYGPV)
[1]; FIG. 7A
  inhibitory potency on secPHEX compared to osteocalcin extracted from bones: similar
[2]; FIG. 7B
  modulation of inhibitory activity on secPHEX by Ca2+: not modulated

## osteocalcin: non-collagenous bone protein, mature peptide 49 amino acids with 3 Gla residues; extracted from human bones (YLYQWLGAPVPYPDPL[Gla]PRR[Gla]VC[Gla]LNPDCDELADHIGFQEAYRRFYGPV; disulfide 23-29 (inferred))
[1]; 5×10^−6 M osteocalcin
  inhibition of secPHEX activity: approximately 75%
[1]; data not shown
  degradation by secPHEX: not degraded
[1]; secPHEX-mediated PTHrP107-139 hydrolysis, FIG. 6A, read-out: concentration giving fifty percent inhibition of secPHEX activity
  IC50: 3.6 µM

B1: secPHEX: soluble, secreted form of recombinant human PHEX zinc metallopeptidase produced in LLC-PK1 cells (protein, UniProt P78562 42-641, looked up)
extracellular domain: QGLLSLQAKQEYCLKPECIEAAAAILSKVNLSVDPCDNFFRFACDGWISNNPIPEDMPSYGVYPWLRHNVDLKLKELLEKSISRRRDTEAIQKAKILYSSCMNEKAIEKADAKPLLHILRHSPFRWPVLESNIGPEGVWSERKFSLLQTLATFRGQYSNSVFIRLYVSPDDKASNEHILKLDQATLSLAVREDYLDNSTEAKSYRDALYKFMVDTAVLLGANSSRAEHDMKSVLRLEIKIAEIMIPHENRTSEAMYNKMNISELSAMIPQFDWLGYIKKVIDTRLYPHLKDISPSENVVVRVPQYFKDLFRILGSERKKTIANYLVWRMVYSRIPNLSRRFQYRWLEFSRVIQGTTTLLPQWDKCVNFIESALPYVVGKMFVDVYFQEDKKEMMEELVEGVRWAFIDMLEKENEWMDAGTKRKAKEKARAVLAKVGYPEFIMNDTHVNEDLKAIKFSEADYFGNVLQTRKYLAQSDFFWLRKAVPKTEWFTNPTTVNAFYSASTNQIRFPAGELQKPFFWGTEYPRSLSYGAIGVIVGHEFTHGFDNNGRKYDKNGNLDPWWSTESEEKFKEKTKCMINQYSNYYWKKAGLNVKGKRTLG
modifications: extracellular domain
notes: soluble, secreted form of recombinant human PHEX zinc metallopeptidase produced in LLC-PK1 cells
[3]; daily injection over 4 days, as a function of dose, Student t test p<0.05
  effect on serum phosphate: decreased
[3]; dose 1 mg/kg group, 1 mg/kg
  serum phosphate, Day 0: 1.68 and 1.25 and 1.36 and 1.37
[3]; dose 1 mg/kg i.v. daily for 4 days, 1 mg/kg
  serum phosphate, Day 4: 1.23 and 1.06 and 1.18 and 1.31
[3]; dose 10 mg/kg group, 10 mg/kg
  serum phosphate, Day 0: 1.16 and 1.12 and 1.39 and 1.14
[3]; dose 10 mg/kg i.v. daily for 4 days, 10 mg/kg
  serum phosphate, Day 4: 0.92 and 0.82 and 0.89 and 0.87
[4]; MES buffer pH 5.0 to 7.0, Tris buffer pH 7.0 to 9.0
  pH of maximum activity: 6.5
[4]; fragments identified by MALDI-Tof
  cleavage site specificity in PTHrP107-139: amino-terminus of aspartate residues
[5]
  salt concentration below which secPHEX precipitated out: less than 50 mM
[6]; 1 mg/kg daily for 14 days
  serum phosphate levels at the 7th and 14th day: same level as pretreatment
[6]; 1 mg/kg daily for 14 days, normal levels 71+/−11 units, Student t test p<0.05
  effect on serum alkaline phosphatase levels: significantly reduced toward normal levels
[6]; [9]
  alkaline phosphatase level, 7th day of treatment: 183 units and 235 units and 233 units and 199 units and 246 units
  alkaline phosphatase level, 14th day of treatment: 196 units (2×) and 208 units and 193 units and 218 units
[6]; 1 mg/kg group, individual Hyp mice, 7 day pre-treatment
  alkaline phosphatase level, pre-treatment: 292 units and 357 units and 377 units and 348 units and 323 units

B2: secPHEXE581V: inactive secPHEX protein bearing the mutation Glu 581 to Val (protein)
chain: QGLLSLQAKQEYCLKPECIEAAAAILSKVNLSVDPCDNFFRFACDGWISNNPIPEDMPSYGVYPWLRHNVDLKLKELLEKSISRRRDTEAIQKAKILYSSCMNEKAIEKADAKPLLHILRHSPFRWPVLESNIGPEGVWSERKFSLLQTLATFRGQYSNSVFIRLYVSPDDKASNEHILKLDQATLSLAVREDYLDNSTEAKSYRDALYKFMVDTAVLLGANSSRAEHDMKSVLRLEIKIAEIMIPHENRTSEAMYNKMNISELSAMIPQFDWLGYIKKVIDTRLYPHLKDISPSENVVVRVPQYFKDLFRILGSERKKTIANYLVWRMVYSRIPNLSRRFQYRWLEFSRVIQGTTTLLPQWDKCVNFIESALPYVVGKMFVDVYFQEDKKEMMEELVEGVRWAFIDMLEKENEWMDAGTKRKAKEKARAVLAKVGYPEFIMNDTHVNEDLKAIKFSEADYFGNVLQTRKYLAQSDFFWLRKAVPKTEWFTNPTTVNAFYSASTNQIRFPAGELQKPFFWGTEYPRSLSYGAIGVIVGHVFTHGFDNNGRKYDKNGNLDPWWSTESEEKFKEKTKCMINQYSNYYWKKAGLNVKGKRTLG
[4]; similar conditions as secPHEX, FIG. 3D
  degradation of PTHrP107-139 (in words): failed to degrade
